From US20260242441A1 come the findings set out here.

The assay concerns the target CD45 (PTPRC) phosphatase, endogenous, of Jurkat cells and human PBMC (human) (UniProt P08575). Description: cell-based or functional assay.

“soluble recombinant human BTN2A2-Fc fusion protein (baculovirus / insect cell derived)” gave an expansion of CD4+CD25+CD127low/-Foxp3+ Treg cells in human PBMC MLR, with or without CD45 inhibitor of 2 fold.
